Laboratory results reported in the supplement of paper PMC6757056.
± gives the standard deviation of the averaged measurements.

B1: library; a variant is named by its letters at N, in order (parent)
chain: GCUGUCACCGGUGUAUUACCCUAGUGGUCGACCGGUCUGAUGAGUCUNNNNNNAGACGAAACAGC

Columns and labels:
hypoxanthine [1] = variants of: B1; test: FACS-Seq fitted mean relative fluorescence mCherry/BFP without ligand (log10 relative fluorescence); ligand: hypoxanthine (xanthine aptamer); higher = higher reporter protein expression; conditions: HEK293T, ligand present: no
Procedure, shortened: (§1)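 Cells were sorted into 6 bins on the mCherry/BFP ratio after 48 h with or without ligand. These were enriched HEK293T cells transduced by lentivirus with a ribozyme-switch mCherry reporter plus an EF1α-BFP marker. Fluorescence was obtained by fitting a normal distribution to sequencing-derived bin counts. Counts came from MiSeq sequencing of PCR-amplified, barcoded genomic DNA, binned by log10(mCherry/BFP), with means scaled to five spiked-in control ribozymes.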

hypoxanthine [2] = variants of: B1; test: normalized RNA/DNA level with ligand (relative to sTRSVctl = 100) (log10 (% of sTRSVctl)); ligand: hypoxanthine (xanthine aptamer); higher = less ribozyme self-cleavage, higher mRNA level; conditions: ligand concentration (+) RNA-Seq: 5 mM, HEK293T, reporter: mCherry (pCS4076), ligand present: yes
Procedure, shortened: (§2)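 Ribozyme switch library plasmids with mCherry reporters (eGFP in certain ligand experiments) went into HEK293T cells at 4 µg per 6-well well. Where ligand was used, it was applied 1 h before transfection, and total RNA was extracted with EDTA 72 h later for reverse transcription, amplification, barcoding and sequencing. RNA level is the RNA-to-DNA read ratio normalized to a spiked-in non-cleaving sequence or to the leading sequences, then scaled and log-transformed. Scaling was ×100 with log10, the leading set comprised 25 sequences, and the cutoff was ≥100 DNA reads.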

hypoxanthine [3] = variants of: B1; test: normalized RNA/DNA level without ligand (relative to sTRSVctl = 100) (log10 (% of sTRSVctl)); ligand: hypoxanthine (xanthine aptamer); higher = less ribozyme self-cleavage, higher mRNA level; conditions: HEK293T, reporter: mCherry (pCS4076), ligand present: no
Procedure, shortened: as §2

hypoxanthine [4] = variants of: B1; test: FACS-Seq fitted mean relative fluorescence mCherry/BFP with ligand (log10 relative fluorescence); ligand: hypoxanthine (xanthine aptamer); ligand concentration (+) FACS-Seq: 5 mM; higher = higher reporter protein expression; conditions: HEK293T, ligand present: yes
Procedure, shortened: as §1

Row | Variant | FACS-Seq fitted mean (log10) (hypoxanthine [1]) | normalized RNA/DNA level with ligand (log10) (hypoxanthine [2]) | normalized RNA/DNA level without ligand (log10) (hypoxanthine [3]) | FACS-Seq fitted mean (log10) (hypoxanthine [4])
1 | AUCCCG | 0.0616 ± 0.017 | 1.86 ± 0.04 | 1.51 ± 0.11 | 0.148 ± 0.14
2 | AUCGCC | 0.477 ± 0.12 | 1.95 ± 0.028 | 1.91 ± 0.034 | -0.391 ± 0.0099
3 | AUCAGA | -0.0827 ± 0.0075 | 1.9287 ± 0.00064 | 1.828 ± 0.0044 | 0.00695 ± 0.085
4 | AUCAGG | 0.386 ± 0.072 | 1.87 ± 0.01 | 1.48 ± 0.061 | 0.617 ± 0.048
5 | AUCAGU | 0.169 ± 0.016 | 1.885 ± 0.012 | 1.772 ± 0.0019 | 0.476 ± 0.069
6 | AUCCGA | 0.296 ± 0.067 | 1.92 ± 0.014 | 1.758 ± 0.012 | 0.5594 ± 0.0019
7 | AUCCGC | 0.3452 ± 0.0029 | 1.931 ± 0.011 | 1.8 ± 0.024 | 0.517 ± 0.049
8 | UUCCCG | 0.397 ± 0.063 | 1.919 ± 0.0045 | 1.83 ± 0.046 | 0.514 ± 0.064
9 | AUAAUU | 0.751 ± 0.0089 | 1.92 ± 0.046 | 1.83 ± 0.061 | 0.619 ± 0.013
10 | AUAAUA | -0.24 ± 0.021 | 1.886 ± 0.012 | 1.82 ± 0.0094 | -0.134 ± 0.044
11 | AUAAUG | 0.211 ± 0.039 | 1.838 ± 0.013 | 1.51 ± 0.064 | 0.551 ± 0.036
12 | AUCAUU | 0.581 ± 0.01 | 1.96 ± 0.037 | 1.96 ± 0.029 | 0.691 ± 0.072
13 | AUCAUA | 0.467 ± 0.023 | 1.92 ± 0.035 | 1.798 ± 0.0029 | 0.562 ± 0.061
14 | CUCGGG | 0.547 ± 0.055 | 1.923 ± 0.0029 | 1.657 ± 0.0028 | 0.46 ± 0.0048
15 | CUCGGC | 0.2237 ± 0.00057 | 1.97 ± 0.12 | 1.92 ± 0.093 | 0.24 ± 0.018
16 | CUCGGU | -0.663 ± 0.081 | 1.94 ± 0.022 | 1.85 ± 0.041 | -0.785 ± 0.082
17 | UUCGAU | 0.164 ± 0.024 | 1.88 ± 0.019 | 1.767 ± 0.00052 | 0.303 ± 0.0063
18 | UUCGAA | 0.708 ± 0.021 | 1.938 ± 0.0037 | 1.7 ± 0.045 | 0.716 ± 0.059
19 | GUAUCU | 0.165 ± 0.12 | 1.966 ± 0.0064 | 1.94 ± 0.025 | 0.536 ± 0.059
20 | UUAUUA | 0.289 ± 0.0048 | 1.96 ± 0.086 | 1.91 ± 0.062 | 0.398 ± 0.036
21 | CUAGUG | -0.00638 ± 0.00052 | 1.95 ± 0.1 | 1.85 ± 0.028 | 0.202 ± 0.017
22 | CUAGUC | 0.639 ± 0.036 | 1.99 ± 0.074 | 1.91 ± 0.046 | 0.658 ± 0.03
23 | GUACCG | 0.26 ± 0.029 | 1.903 ± 0.0046 | 1.624 ± 0.0025 | 0.511 ± 0.015
24 | GUACCA | 0.512 ± 0.037 | 1.944 ± 0.012 | 1.867 ± 0.006 | 0.532 ± 0.03

Row | Variant | FACS-Seq fitted mean (log10) (hypoxanthine [1]) | normalized RNA/DNA level with ligand (log10) (hypoxanthine [2]) | normalized RNA/DNA level without ligand (log10) (hypoxanthine [3]) | FACS-Seq fitted mean (log10) (hypoxanthine [4])
25 | AUAGUA | 0.52 ± 0.03 | 1.88 ± 0.034 | 1.751 ± 0.013 | 0.621 ± 0.066
26 | AUAGUG | 0.213 ± 0.046 | 1.82 ± 0.041 | 1.362 ± 0.012 | 0.348 ± 0.12
27 | UUACUG | 0.491 ± 0.085 | 1.93 ± 0.039 | 1.67 ± 0.034 | 0.536 ± 0.13
28 | CUCACU | 0.473 ± 0.021 | 1.99 ± 0.041 | 1.92 ± 0.05 | 0.419 ± 0.12
29 | GUCGAC | 0.245 ± 0.035 | 1.92 ± 0.031 | 1.68 ± 0.033 | 0.428 ± 0.1
30 | GUCGAG | 0.248 ± 0.065 | 1.81 ± 0.062 | 1.41 ± 0.072 | 0.65 ± 0.073
31 | GUCGAA | 0.322 ± 0.039 | 1.92 ± 0.034 | 1.69 ± 0.021 | 0.22 ± 0.072
32 | CUAUGG | 0.518 ± 0.013 | 1.888 ± 0.00026 | 1.6 ± 0.027 | 0.234 ± 0.17
33 | AUCGAG | 0.2633 ± 0.00067 | 1.793 ± 0.014 | 1.35 ± 0.044 | 0.4 ± 0.028
34 | AUCGAU | 0.371 ± 0.032 | 1.9 ± 0.025 | 1.669 ± 0.0035 | 0.284 ± 0.033
35 | AUCGAC | 0.449 ± 0.044 | 1.95 ± 0.063 | 1.81 ± 0.054 | 0.415 ± 0.12
36 | CUAAUG | 0.65 ± 0.052 | 1.922 ± 0.018 | 1.79 ± 0.068 | 0.577 ± 0.044
37 | CUAAUC | 0.365 ± 0.027 | 1.94 ± 0.037 | 1.9 ± 0.043 | 0.43119 ± 0.00031
38 | CUAGAA | 0.259 ± 0.2 | 1.92 ± 0.032 | 1.79 ± 0.042 | 0.359 ± 0.059
39 | CUAGAC | 0.273 ± 0.014 | 1.901 ± 0.0041 | 1.832 ± 0.011 | 0.149 ± 0.099
40 | CUAGAU | -0.176 ± 0.0088 | 1.96 ± 0.051 | 1.79 ± 0.056 | 0.0723 ± 0.049
41 | UUCGCA | 0.4682 ± 0.0031 | 1.95 ± 0.051 | 1.86 ± 0.067 | 0.512 ± 0.038
42 | UUCAAA | 0.11 ± 0.051 | 1.95 ± 0.026 | 1.802 ± 0.0086 | 0.0695 ± 0.15
43 | UUCAAU | -0.589 ± 0.025 | 1.937 ± 0.015 | 1.81 ± 0.024 | -0.1336 ± 0.00015
44 | UUCAAG | 0.352 ± 0.023 | 1.907 ± 0.0058 | 1.72 ± 0.056 | 0.545 ± 0.024
45 | GUAUGA | 0.0955 ± 0.069 | 1.89 ± 0.049 | 1.64 ± 0.012 | 0.000695 ± 0.097
46 | GUAUGG | 0.0518 ± 0.044 | 1.783 ± 0.01 | 1.331 ± 0.013 | 0.63 ± 0.026
47 | GUAUGU | 0.23 ± 0.082 | 1.899 ± 0.013 | 1.77 ± 0.017 | 0.398 ± 0.0075
48 | GUCCCG | 0.415 ± 0.0031 | 1.91 ± 0.0099 | 1.64 ± 0.12 | 0.511 ± 0.028

Row | Variant | FACS-Seq fitted mean (log10) (hypoxanthine [1]) | normalized RNA/DNA level with ligand (log10) (hypoxanthine [2]) | normalized RNA/DNA level without ligand (log10) (hypoxanthine [3]) | FACS-Seq fitted mean (log10) (hypoxanthine [4])
49 | UUAGGC | 0.15 ± 0.015 | 1.95 ± 0.05 | 1.887 ± 0.014 | 0.181 ± 0.0045
50 | UUAGGG | 0.351 ± 0.012 | 1.87 ± 0.037 | 1.69 ± 0.017 | 0.655 ± 0.028
51 | UUACGU | 0.582 ± 0.017 | 1.95 ± 0.075 | 1.83 ± 0.025 | 0.566 ± 0.013
52 | GUCGCA | 0.304 ± 0.021 | 1.94 ± 0.037 | 1.788 ± 0.0024 | 0.56 ± 0.0098
53 | CUACAA | 0.07 ± 0.013 | 1.9 ± 0.013 | 1.79 ± 0.044 | -0.0643 ± 0.025
54 | UUCGUA | 0.252 ± 0.0058 | 1.93 ± 0.064 | 1.87 ± 0.026 | 0.384 ± 0.035
55 | AUCUAA | 0.268 ± 0.023 | 1.905 ± 0.019 | 1.78 ± 0.022 | 0.411 ± 0.03
56 | GUAUAG | -0.0857 ± 0.034 | 1.854 ± 0.0081 | 1.44 ± 0.065 | 0.479 ± 0.013
57 | GUAUAC | 0.143 ± 0.058 | 1.94 ± 0.067 | 1.82 ± 0.067 | 0.251 ± 0.093
58 | GUAUAU | -0.558 ± 0.056 | 1.84 ± 0.024 | 1.8 ± 0.041 | -0.474 ± 0.016
59 | UUAAUA | 0.528 ± 0.021 | 1.9466 ± 0.0017 | 1.79 ± 0.029 | 0.658 ± 0.014
60 | AUAGCG | -0.227 ± 0.035 | 1.87 ± 0.045 | 1.36 ± 0.057 | -0.0558 ± 0.023
61 | AUAGCA | 0.241 ± 0.047 | 1.88 ± 0.033 | 1.78 ± 0.023 | 0.455 ± 0.093
62 | CUAAGU | 0.447 ± 0.0085 | 1.93 ± 0.023 | 1.86 ± 0.031 | 0.262 ± 0.12
63 | AUACCG | 0.00532 ± 0.0097 | 1.84 ± 0.095 | 1.47 ± 0.035 | 0.282 ± 0.082
64 | AUACCC | 0.513 ± 0.014 | 1.94 ± 0.043 | 1.89 ± 0.027 | 0.292 ± 0.028
65 | GUCCAG | 0.3111 ± 0.00085 | 1.863 ± 0.015 | 1.48 ± 0.054 | 0.723 ± 0.0074
66 | GUCCAC | -0.048 ± 0.034 | 1.94 ± 0.054 | 1.848 ± 0.0045 | 0.0349 ± 0.08
67 | GUCCAA | 0.669 ± 0.0074 | 1.89 ± 0.065 | 1.79 ± 0.035 | 0.655 ± 0.08
68 | CUAGCA | 0.139 ± 0.058 | 1.93 ± 0.038 | 1.83 ± 0.04 | 0.177 ± 0.018
69 | AUAUUC | 0.242 ± 0.014 | 1.92 ± 0.042 | 1.88 ± 0.051 | 0.166 ± 0.071
70 | AUAUUG | 0.2149 ± 0.0019 | 1.87 ± 0.053 | 1.53 ± 0.075 | 0.486 ± 0.011
71 | UUAUAC | 0.396 ± 0.054 | 1.908 ± 0.015 | 1.827 ± 0.0035 | 0.632 ± 0.0036
